Experimental data from US11484611B2, “Method for sterilizing biological materials” (FM&G Biomed Co., Ltd., priority 2006, dated 2022).

Tests used:
Assay type in all cases: physicochemical
[1] = Capillary electrochromatography of sterilized hyaluronan; details: absorbance at 194 nm, corresponds to amount of hyaluronan
Method: Two equivalent amounts of hyaluronan (average molecular weight: 58 kDa), were respectively subjected to ozone sterilization and autoclave sterilization. Subsequently, the sterilized samples were analyzed by capillary electrochromatography using a fused silica capillary and a 50 mM phosphate buffer (pH 2.99). Separations were carried out at 25 kV and a column temperature of 25° C. Absorbance was detected at 194 nm. Shown in Table 3 below are the areas under the peak for each of the two samples, which correspond to the amount of hyaluronan contained therein. An untreated sample was included as the control.

[2] = Fluorescence intensity of riboflavin solutions under ultraviolet irradiation; details: aqueous solution; compared with untreated riboflavin solutions; higher intensity = degradation
Method: Dehydrated riboflavin was untreated, sterilized by autoclave, or sterilized with ozone. Samples were then dissolved in water to prepare six riboflavin solutions, i.e., solution 1 (100 mg/mL, autoclaved), solution 2 (100 mg/mL, ozone-sterilized), solution 3 (100 mg/mL, untreated), solution 4 (50 mg/mL, autoclaved), solution 5 (50 mg/mL, ozone-sterilized), and solution 6 (50 mg/mL, untreated). Fluorescence intensities of the six solutions were observed under ultraviolet irradiation.

[3] = Acrylamide gel electrophoresis of sterilized pepsin and bromelain; details: 5% acrylamide gel, Coomassie blue
Method: Samples of two dehydrated enzymes, i.e., pepsin and bromelain, were untreated, sterilized by autoclave, or sterilized with ozone. Subsequently, the samples were dissolved acetate solutions, analyzed by 5% acrylamide gel electrophoresis, and stained with Coomassie blue.

[4] = Molecular property of sterilized collagen by acrylamide gel electrophoresis
Method: Molecular Property of Sterilized Collagen: equivalent amounts of dehydrated collagen were subjected to the following respective treatments: (1) non-treatment; (2) treatment with ozone gas, as described in Example 1; (3) treatment with ultraviolet irradiation for 12 hours; (4) immersion in 75 vol. % ethanol for 4 hours; (5) immersion in 2 vol. % formaldehyde for 1 hour; or (6) autoclave sterilization under high-temperature and high-pressure. Afterwards, each of the samples from the aforementioned treatments was dissolved in acetate solution, analyzed by 5% acrylamide gel electrophoresis, and stained with Coomassie blue.

hyaluronan
Area under the Peak ([1]; Autoclaved): 633930 | Area under the Peak ([1]; Ozone-treated): 814725

Cc1cc2nc3c(=O)[nH]c(=O)nc-3n(C[C@H](O)[C@H](O)[C@H](O)CO)c2cc1C [solution 1, riboflavin]
fluorescence intensity under ultraviolet irradiation [2]: higher than those of the untreated control solutions

bromelain
band in electrophoresis gel ([3]; autoclaved): only showed an indistinct band | band in electrophoresis gel ([3]; ozone-treated): the same band as the control

Cc1cc2nc3c(=O)[nH]c(=O)nc-3n(C[C@H](O)[C@H](O)[C@H](O)CO)c2cc1C [solution 4, riboflavin]
fluorescence intensity under ultraviolet irradiation [2]: higher than those of the untreated control solutions

collagen
bands of α1, α2 and β chains in electrophoresis gel ([4]; autoclave sterilization, high-temperature and high-pressure, lane (6)): mostly degraded | bands of α1, α2 and β chains in electrophoresis gel ([4]; immersion in 2 vol. % formaldehyde for 1 hour, lane (5)): showed no bands | bands of α1, α2 and β chains in electrophoresis gel ([4]; immersion in 75 vol. % ethanol for 4 hours, lane (4)): only showed indistinct bands | bands of α1, α2 and β chains in electrophoresis gel ([4]; treated by ozone gas, lane (2), 5% acrylamide gel, Coomassie blue): substantially the same as the control | bands of α1, α2 and β chains in electrophoresis gel ([4]; ultraviolet irradiation for 12 hours, lane (3)): partially polymerized and cleaved

pepsin
band in electrophoresis gel ([3]; autoclaved): a band with substantially reduced stain density | band in electrophoresis gel ([3]; ozone-treated): a single band that was the same as that shown by untreated pepsin
